Paper doi:10.1101/209809 (bioRxiv, 2017)
Each block holds one binder with its values, some of them ahead of it.

How the values were obtained:
[1] = biological target: T1, N-terminal region of human WDR33 (residues 1-572) (human, UniProt Q9C0J8 1-572); assay: cryo-EM structure
T1 sequence (looked up): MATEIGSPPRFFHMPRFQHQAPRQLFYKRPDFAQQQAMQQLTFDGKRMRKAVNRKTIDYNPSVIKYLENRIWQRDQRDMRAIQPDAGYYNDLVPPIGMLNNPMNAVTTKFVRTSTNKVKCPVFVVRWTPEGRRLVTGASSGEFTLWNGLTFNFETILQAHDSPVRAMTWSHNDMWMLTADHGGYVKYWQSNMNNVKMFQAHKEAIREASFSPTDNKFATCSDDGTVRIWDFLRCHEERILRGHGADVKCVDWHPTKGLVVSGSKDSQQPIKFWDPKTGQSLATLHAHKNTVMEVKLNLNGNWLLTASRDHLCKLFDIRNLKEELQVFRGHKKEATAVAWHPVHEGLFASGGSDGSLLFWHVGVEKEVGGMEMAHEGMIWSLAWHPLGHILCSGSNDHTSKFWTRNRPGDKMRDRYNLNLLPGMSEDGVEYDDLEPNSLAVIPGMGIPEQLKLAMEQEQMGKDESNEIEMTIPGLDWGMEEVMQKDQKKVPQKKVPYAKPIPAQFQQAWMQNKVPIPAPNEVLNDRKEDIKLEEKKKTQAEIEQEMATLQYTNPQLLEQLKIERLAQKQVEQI

[2] = biological target: CPSF-160–WDR33 binary complex (human, UniProt Q10570 1-1443; Q9C0J8 1-572); assay: cryo-EM structure
[3] = biological target: T2, CPSF-160;WDR33 (1-572);CPSF-30 (human;human;human, UniProt Q10570;Q9C0J8;O95639-2 1-1443;1-572;1-244, ||); assay: cryo-EM structure
[4] = biological target: T2, CPSF-160;WDR33 (1-572);CPSF-30; assay: EMSA
[5] = biological target: CPSF-160;WDR33 (1-572);MBP-CPSF-30(33-170) (human;human;human, UniProt Q10570;Q9C0J8;O95639-2 1-1443;1-572;33-170, ||); assay: EMSA
Chain of CPSF-160;WDR33 (1-572);MBP-CPSF-30(33-170) (Q10570 whole entry, chain 1 of 2, one chain of several): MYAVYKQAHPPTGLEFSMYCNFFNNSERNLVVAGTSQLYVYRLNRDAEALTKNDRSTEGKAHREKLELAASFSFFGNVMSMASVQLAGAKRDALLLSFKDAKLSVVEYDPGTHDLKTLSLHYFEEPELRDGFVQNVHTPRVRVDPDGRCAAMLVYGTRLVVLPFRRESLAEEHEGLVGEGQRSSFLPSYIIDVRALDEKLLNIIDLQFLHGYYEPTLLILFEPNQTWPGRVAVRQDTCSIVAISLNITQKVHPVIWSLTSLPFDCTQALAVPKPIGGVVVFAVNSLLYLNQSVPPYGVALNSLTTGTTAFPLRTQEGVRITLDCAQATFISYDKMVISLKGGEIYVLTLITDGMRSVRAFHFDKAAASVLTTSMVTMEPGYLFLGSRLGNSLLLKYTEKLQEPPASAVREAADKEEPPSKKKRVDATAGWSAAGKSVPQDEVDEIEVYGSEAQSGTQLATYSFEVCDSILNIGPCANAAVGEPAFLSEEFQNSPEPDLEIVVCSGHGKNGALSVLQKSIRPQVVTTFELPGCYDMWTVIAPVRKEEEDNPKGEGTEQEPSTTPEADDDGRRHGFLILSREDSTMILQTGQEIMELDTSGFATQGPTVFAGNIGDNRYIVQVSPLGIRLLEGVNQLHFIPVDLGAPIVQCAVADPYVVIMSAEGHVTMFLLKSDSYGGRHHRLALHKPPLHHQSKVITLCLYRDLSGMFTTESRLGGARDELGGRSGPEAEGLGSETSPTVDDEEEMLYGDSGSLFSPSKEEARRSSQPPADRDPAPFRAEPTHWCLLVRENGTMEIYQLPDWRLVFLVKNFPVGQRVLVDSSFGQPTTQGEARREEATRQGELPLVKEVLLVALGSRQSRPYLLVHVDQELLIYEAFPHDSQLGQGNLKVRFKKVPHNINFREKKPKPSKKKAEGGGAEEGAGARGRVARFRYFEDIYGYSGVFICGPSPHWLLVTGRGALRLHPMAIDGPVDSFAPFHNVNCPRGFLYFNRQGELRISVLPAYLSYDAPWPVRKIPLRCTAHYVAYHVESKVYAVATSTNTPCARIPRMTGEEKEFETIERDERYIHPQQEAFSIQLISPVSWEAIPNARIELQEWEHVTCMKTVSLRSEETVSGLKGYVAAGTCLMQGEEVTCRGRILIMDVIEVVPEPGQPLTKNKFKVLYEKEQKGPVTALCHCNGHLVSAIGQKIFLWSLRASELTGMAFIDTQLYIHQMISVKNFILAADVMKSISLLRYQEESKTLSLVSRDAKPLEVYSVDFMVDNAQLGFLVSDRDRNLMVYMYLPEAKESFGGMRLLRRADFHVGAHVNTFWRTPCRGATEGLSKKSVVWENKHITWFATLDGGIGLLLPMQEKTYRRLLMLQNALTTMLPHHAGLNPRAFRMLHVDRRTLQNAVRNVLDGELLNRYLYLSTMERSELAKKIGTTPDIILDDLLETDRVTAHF

T2 sequence (Q10570 whole entry, one chain of several): as the sequence (Q10570 whole entry, chain 1 of 2, one chain of several) above
Chain of CPSF-160–WDR33 binary complex (Q10570 whole entry, one chain of several): as the sequence (Q10570 whole entry, chain 1 of 2, one chain of several) above

binding result [1]: binds
binding result [2]: binds
B1: full-length human CPSF-30 (isoform 2), MBP removed by TEV protease (natural protein, UniProt O95639-2 1-244, looked up)
chain: MQEIIASVDHIKFDLEIAVEQQLGAQPLPFPGMDKSGAAVCEFFLKAACGKGGMCPFRHISGEKTVVCKHWLRGLCKKGDQCEFLHEYDMTKMPECYFYSKFGECSNKECPFLHIDPESKIKDCPWYDRGFCKHGPLCRHRHTRRVICVNYLVGFCPEGPSCKFMHPRFELPMGTTEQPPLPQQTQPPAKQRTPQVIGVMQSQNSSAGNRGPRPLEQVTCYKCGEKGHYANRCTKGHLAFLSGQ

Binder: AACCUCCAAUAAACAAC (ssRNA) [17-mer PAS RNA, unlabeled (EM)]
binding result [3]: binds

Binder: AACCUCCAAUAAACAAC (ssRNA) [17-mer PAS RNA (AAUAAA)]
binding result [4]: binds
binding result [5]: binds
